# Test system: Psl (enriched carbohydrate purified from PAO1ΔwbpL/algD/pelA)
# Experiment: Psl capture binding assay (FORTEBIO OCTET 384)
# Parameters: species or system Pseudomonas aeruginosa
# Details: FIG. 3K; for capture of Psl antigen by biosensor-bound antibody: antibody bound to aminopropylsilane biosensors
# Procedure: To confirm that all of the antibodies bound to the same antigen, a Psl capture binding assay was performed using a FORTEBIO® OCTET® 384 instrument as described above. The antigen was proteinase K-treated enriched carbohydrate purified from PAO1ΔwbpL/algD/pelA (O-antigen-, alginate- and Pel exopolysaccharide-deficient). Individual antibodies were bound to aminopropylsilane biosensors followed by blocking and the addition of the enriched carbohydrate antigen. After washing to remove unbound antigen, binding of unlabelled mAbs to captured antigen was assessed.
Molecule,reactivity of unlabelled mAb to captured Psl,capture of Psl antigen by biosensor-bound antibody
"WapR-007: antibody, VH SEQ ID NO: 13 and VL SEQ ID NO: 14 (antibody, V domains shown, WapR-007 VH; WapR-007 VL) VH: EVQLVQSGADVKKPGASVRVTCKASGYTFTGHNIHWVRQAPGQGLEWMGWINPDSGATSYAQKFQGRVTMTRDTSITTAYMDLSRLRSDDTAVYYCATDTLLSNHWGQGTLVTVSS VL: SSELTQDPAVSVALGQTVRITCQGDSLRSYYTNWFQQKPGQAPLLVVYAKNKRPPGIPDRFSGSSSGNTASLTITGAQAEDEADYYCHSRDSSGNHVVFGGGTKLTVL",Minimal reactivity,capable of capturing antigen
"WapR-001: anti-Psl antibody, VH SEQ ID NO: 5 and VL SEQ ID NO: 6 (antibody, V domains shown, WapR-001 VH; WapR-001 VL) VH: EVQLLESGGGLVQPGGSLRLSCSASGFTFSRYPMHWVRQAPGKGLEYVSDIGTNGGSTNYADSVKGRFTISRDNSKNTVYLQMSSLRAEDTAVYHCVAGIAAAYGFDVWGQGTMVTVSS VL: QAGLTQPASVSGSPGQSITISCTGTSSDIATYNYVSWYQQHPGKAPKLMIYEGTKRPSGVSNRFSGSKSGNTASLTISGLQAEDEADYYCSSYARSYTYVFGTGTELTVL",reacted,capable of capturing antigen
"WapR-002: anti-Psl antibody, VH SEQ ID NO: 7 and VL SEQ ID NO: 8 (antibody, V domains shown, WapR-002 VH; WapR-002 VL) VH: QVQLVQSGGGLVQPGGSLRLSCSASGFTFSSYPMHWVRQAPGKGLDYVSDISPNGGSTNYADSVKGRFTISRDNSKNTLFLQMSSLRAEDTAVYYCVMGLVPYGFDIWGQGTLVTVSS VL: QTVVTQPASVSGSPGQSITISCTGTSSDVGGYNYVSWYQQHPGKAPKLMIYEVSNRPSGVSNHFSGSKSGNTASLTISGLQAEDEADYYCSSYTTSSTYVFGTGTKVTVL",reacted,capable of capturing antigen
"WapR-003: anti-Psl antibody, VH SEQ ID NO: 9 and VL SEQ ID NO: 10 (antibody, V domains shown, WapR-003 VH; WapR-003 VL) VH: QMQLVQSGGGLVQPGGSLRLSCSASGFTFSSYPMHWVRQAPGKGLDYVSDISPNGGATNYADSVKGRFTISRDNSKNTVYLQMSSLRAEDTAVYYCVMGLVPYGFDNWGQGTMVTVSS VL: QTVVTQPASVSASPGQSITISCAGTSGDVGNYNFVSWYQQHPGKAPKLLIYEGSQRPSGVSNRFSGSRSGNTASLTISGLQAEDEADYYCSSYARSYTYVFGTGTKLTVL",reacted,capable of capturing antigen

# Reference: patent US10370436B2, “Anti-pseudomonas Psl binding molecules and uses thereof” (priority 2011, dated 2019)
